# Source: patent publication US20190359719A1 (SORRENTO THERAPEUTICS, published 2019)
# Where a chain is given by its changes, count along the chain named.
# B1: El-A10 (E1 derived anti-c-Met antibody) (antibody, V domains shown)
# VH: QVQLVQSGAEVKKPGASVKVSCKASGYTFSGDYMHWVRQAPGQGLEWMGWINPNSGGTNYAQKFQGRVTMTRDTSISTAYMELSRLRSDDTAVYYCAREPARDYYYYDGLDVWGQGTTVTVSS
# VL: QSVVTQPPSVSGAPGQRVTISCLGSASNIGAGHDVHWYQQLPGTAPKLLIYGNSNRPSGVPDRFSGSKSGTSASLAITGLQAEDEADYYCQSYSSSLSAYVFGTGTKVTVL
# notes: The two labels are matched by their suffix only; Detected with anti-human IgG (gamma-chain specific); also called E1-A10; GCE-A10
# B2: El-A18 (E1 derived anti-c-Met antibody) (antibody, V domains shown)
# VH: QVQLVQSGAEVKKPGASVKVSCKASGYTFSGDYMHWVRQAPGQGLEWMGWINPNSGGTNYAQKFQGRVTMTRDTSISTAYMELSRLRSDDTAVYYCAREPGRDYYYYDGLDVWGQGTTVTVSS
# VL: B1 VL with L23I
# notes: Label 'El-A18' matched to 'GCE-A18' by suffix only; Detected with anti-human IgG; also called E1-A18; GCE-A18
# B3: El-BR1 (E1 derived anti-c-Met antibody) (antibody, V domains shown)
# VH: QVQLVQSGAEVKKPGASVKVSCKASGSTFSGDYLHWVRQAPGQGLEWMGWINPNSGGTNYAQKFQGRVTMTRDTSISTAYMELSRLRSDDTAVYYCAREPARDYYYYDGLDVWGQGTTVTVSS
# VL: B1 VL with H33Y, Y100V, V101L
# notes: Label 'El-BR1' matched to 'GCE-BR1' by suffix only; Detected with anti-human IgG; also called E1-BR1; GCE-BR1
# B4: El-A14 (E1 derived anti-c-Met antibody) (antibody, V domains shown)
# VH: B3 VH with S27Y, L34I
# VL: B1 VL with L23I, A26S
# notes: Label 'El-A14' matched to 'GCE-A14' by suffix only; Detected with anti-human IgG; also called E1-A14; GCE-A14
# B5: El-B13 (E1 derived anti-c-Met antibody) (antibody, V domains shown)
# VH: B3 VH with L34I
# VL: B1 VL with Y100V, V101L
# notes: Label 'El-B13' matched to 'GCE-B13' by suffix only; Detected with anti-human IgG; also called E1-B13; GCE-B13
# B6: El-B19 (E1 derived anti-c-Met antibody) (antibody, V domains shown)
# VH: B3 VH with S27F, L34I, A101G
# VL: B1 VL with Y100V, V101L
# notes: Label 'El-B19' matched to 'GCE-B19' by suffix only; Detected with anti-human IgG; also called E1-B19; GCE-B19
# B7: El-A11 (E1 derived anti-c-Met antibody) (antibody, V domains shown)
# VH: B3 VH with S27F, L34I
# VL: B1 VL with A26S, P57I, V101L
# notes: Label 'El-A11' matched to 'GCE-A11' by suffix only; Detected with anti-human IgG; also called E1-A11; GCE-A11
# B8: El-B11 (E1 derived anti-c-Met antibody) (antibody, V domains shown)
# VH: B3 VH with S27Y, L34I
# VL: B1 VL with L23I, A26S, H33Y, P57I, Y100V, V101L
# notes: Label 'El-B11' matched to 'GCE-B11' by suffix only; Detected with anti-human IgG; also called E1-B11; GCE-B11
# B9: El-A13 (E1 derived anti-c-Met antibody) (antibody, V domains shown)
# VH: B3 VH with S27Y
# VL: B1 VL
# notes: Label 'El-A13' matched to 'GCE-A13' by suffix only; Detected with anti-human IgG; also called E1-A13; GCE-A13
# B10: A1-4 anti-c-Met antibody (antibody, V domains shown)
# VH: QVQLQESGPGLVKPSQTLSLTCTVSGGSISSGGYYWSWIRQHPGKGLEWIGESSHSGSTNYNPSLKSRVTISVDTSKNQFSLKLSSVTAADTAVYYCARGRDGYYFDAWGQGTLVTVSS
# VL: LPVLTQPASVSGSPGQSITISCTGTSSDVGGYPYVSWYQQHPGKAPKLMIYVVSDRPSGVSTRFSGSKSGNTASLTISGLQAEDEADYYCSSYRSSSALVVFGGGTQLTVL
# notes: Detected with anti-human IgG (gamma-chain specific)
# B11: A1-24 anti-c-Met antibody (antibody, V domains shown)
# VH: B10 VH with S54T, K66E, G103S, Y105D
# VL: B10 VL with S27F, P33N, V52D, Y93F, S97A, Q107K
# notes: as for B10
# B12: A1-9 anti-c-Met antibody (antibody, V domains shown)
# VH: B10 VH with S53I, F106L, A108Q
# VL: B10 VL with P33N, V52N, Y93F, Q107K
# notes: as for B10
# B13: A1-32 anti-c-Met antibody (antibody, V domains shown)
# VH: B10 VH with S54T, K66D, F106L, A108Q
# VL: B10 VL with S27F, V52D, Y93F, S97A, Q107K
# notes: as for B10
# B14: A1-2 anti-c-Met antibody (antibody, V domains shown)
# VH: B10 VH with S54T, Y105D
# VL: B10 VL with S27F, P33N, V52D, Y93F, Q107K
# notes: as for B10
# B15: A1-6 anti-c-Met antibody (antibody, V domains shown)
# VH: B10 VH with S53I, S54T, Y105D, F106I
# VL: B10 VL with S27W, V52D, S96V, Q107K
# notes: as for B10
# Biological target: T1, c-Met (HGF receptor) expressed on cells (human, UniProt P08581 25-1390)
# T1 construct: whole, on cells; Endogenous c-Met on tumour cell lines and on human umbilical vein endothelial cells
# Test: flow cytometry, antibody titration on HUVEC cells, PE anti-human IgG
# Experimental: (§1) This example illustrates in vitro data for anti-c-Met antibody cellular binding EC₅₀ measurements. […] In this example, DU-145 prostate cancer cells, SK-O-V3 ovarian cancer cells, or human umbilical vein endothelial cells (HUVEC) were aliquoted into the wells of a 96-well, v-bottom plate in FACS Buffer (PBS+2% FBS). A 16-point, 2 fold serial dilution curve of antibodies made in FACS Buffer was used to stain the cells. After 1 hr incubation, cells were washed 2× with FACS Buffer and resuspended in PE-conjugated, goat anti-human IgG (γ-chain specific) secondary antibody (Southern Biotech Cat #2040-09). Cells were further incubated for 0.5 hr and then washed 1× with FACS Buffer. Cells were resuspended in FACS Buffer and the median fluorescence intensity in the FL2-A channel was determined using the Intellicyt® HTFC flow cytometer. Data was collected and analyzed on the Intellicyt® HTFC flow cytometer using the ForeCyt® software. ND=Not Determined.
# T1 sequence (P08581 25-1390): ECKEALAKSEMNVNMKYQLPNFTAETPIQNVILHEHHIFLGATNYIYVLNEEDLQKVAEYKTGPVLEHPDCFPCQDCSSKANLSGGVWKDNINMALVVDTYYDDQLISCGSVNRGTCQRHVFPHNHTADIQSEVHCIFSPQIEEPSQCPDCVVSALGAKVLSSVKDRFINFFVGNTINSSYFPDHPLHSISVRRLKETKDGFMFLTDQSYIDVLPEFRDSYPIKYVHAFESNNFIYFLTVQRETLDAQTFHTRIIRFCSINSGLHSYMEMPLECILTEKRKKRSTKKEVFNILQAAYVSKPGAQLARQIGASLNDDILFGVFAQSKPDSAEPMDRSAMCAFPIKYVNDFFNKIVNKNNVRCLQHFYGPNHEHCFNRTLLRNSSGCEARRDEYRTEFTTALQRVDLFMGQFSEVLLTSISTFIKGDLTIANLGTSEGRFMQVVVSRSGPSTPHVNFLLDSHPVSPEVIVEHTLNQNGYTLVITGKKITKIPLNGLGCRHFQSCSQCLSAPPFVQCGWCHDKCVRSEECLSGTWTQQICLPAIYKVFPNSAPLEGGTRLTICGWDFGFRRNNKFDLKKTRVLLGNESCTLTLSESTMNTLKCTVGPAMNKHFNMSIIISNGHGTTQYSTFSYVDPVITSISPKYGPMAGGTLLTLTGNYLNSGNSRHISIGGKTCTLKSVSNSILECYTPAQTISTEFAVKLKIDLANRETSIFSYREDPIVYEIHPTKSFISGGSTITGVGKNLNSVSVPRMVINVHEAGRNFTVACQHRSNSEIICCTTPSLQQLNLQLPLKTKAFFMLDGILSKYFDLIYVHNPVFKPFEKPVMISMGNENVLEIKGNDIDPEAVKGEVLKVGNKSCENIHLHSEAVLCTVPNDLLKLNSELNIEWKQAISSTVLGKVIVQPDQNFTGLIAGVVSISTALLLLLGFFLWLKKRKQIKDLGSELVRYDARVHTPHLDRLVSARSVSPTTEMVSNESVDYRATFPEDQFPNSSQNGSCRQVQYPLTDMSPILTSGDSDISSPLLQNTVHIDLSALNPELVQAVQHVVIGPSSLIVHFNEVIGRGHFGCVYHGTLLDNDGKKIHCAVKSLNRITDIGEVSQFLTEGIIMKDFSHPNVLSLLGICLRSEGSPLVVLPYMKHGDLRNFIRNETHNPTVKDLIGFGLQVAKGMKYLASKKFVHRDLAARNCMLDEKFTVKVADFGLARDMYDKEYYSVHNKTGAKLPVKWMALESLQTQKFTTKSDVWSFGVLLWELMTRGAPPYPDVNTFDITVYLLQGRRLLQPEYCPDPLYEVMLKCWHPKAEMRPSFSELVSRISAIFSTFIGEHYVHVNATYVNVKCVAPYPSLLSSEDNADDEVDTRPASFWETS
row,EC50 [nM],Binder
1,0.148,B1
2,0.606,B2
3,0.376,B3
4,0.132,B4
5,0.19,B5

# Biological target: T1, c-Met (HGF receptor) expressed on cells
# Test: flow cytometry, antibody titration on DU-145 prostate cancer cells, PE anti-human IgG
# Experimental: as §1
row,EC50 [nM],Binder
1,0.2,B1
2,3.35,B6
3,0.26,B7
4,3.36,B3
5,0.34,B8
6,0.212,B4
7,0.362,B9
8,0.251,B5

# Biological target: T1, c-Met (HGF receptor) expressed on cells
# Test: flow cytometry, antibody titration on SK-O-V3 ovarian cancer cells, PE anti-human IgG
# Experimental: as §1
row,EC50 [nM],Binder
1,0.153,B1
2,0.852,B6
3,1.15,B2
4,0.2,B7
5,0.467,B3
6,0.41,B8
7,0.12,B4
8,0.159,B9
9,0.191,B5

# Biological target: T1, c-Met (HGF receptor) expressed on cells
# Test: flow cytometry, antibody titration on DU-145 prostate cancer cells, PE anti-human IgG
# Remark: another data set of the same source
# Experimental: as §1, with “cells or” for “cells,”, “cancer” for “cancer cells, or human umbilical vein endothelial”, “cells” for “cells (HUVEC)”, “Determined” for “Determined.”
row,EC50 [nM],Binder
1,0.017,B10
2,0.003,B11
3,0.058,B12
4,0.064,B13

# Biological target: T1, c-Met (HGF receptor) expressed on cells
# Test: flow cytometry, antibody titration on SK-O-V3 ovarian cancer cells, PE anti-human IgG
# Remark: another data set of the same source
# Experimental: as §1, with “cells or” for “cells,”, “cancer” for “cancer cells, or human umbilical vein endothelial”, “cells” for “cells (HUVEC)”, “Determined” for “Determined.”
row,EC50 [nM],Binder
1,0.223,B14
2,0.054,B10
3,0.135,B11
4,0.076,B12
5,0.053,B15
6,0.109,B13
